Data on one substance can be found in PMC9699129.

Test [1] concerns the target MsFcγRIα-EGFP (largemouth bass FcγRIα fused to EGFP, expressed on transfected HEK293 cells) (largemouth bass (Micropterus salmoides)). The test is described as follows: flow cytometry on cells; MsFcγRIα-EGFP-transfected HEK293 cells in serum-free DMEM, 20 μg/mL purified MsIgM added for 24 h at 37 °C; bound MsIgM detected with anti-MsIgM mAb MM06H and Alexa Fluor 647 goat anti-mouse IgG; n = 3.

The target is the same in test [2]. The test is described as follows: flow cytometry on cells; MsFcγRIα-EGFP-transfected HEK293 cells in serum-free DMEM, 20 μg/mL purified MsIgM added for 6 h at 37 °C; bound MsIgM detected with anti-MsIgM mAb MM06H and Alexa Fluor 647 goat anti-mouse IgG; n = 3.
Test [3] has the same target. The test is described as follows: flow cytometry on cells; MsFcγRIα-EGFP-transfected HEK293 cells in serum-free DMEM, 20 μg/mL purified MsIgM added for 12 h at 37 °C; bound MsIgM detected with anti-MsIgM mAb MM06H and Alexa Fluor 647 goat anti-mouse IgG; n = 3.

With “largemouth bass IgM (MsIgM), purified from serum (natural protein)”, the percent of MsFcγRIα-expressing HEK293 cells with MsIgM after 24 h incubation in test [1] came out at 40.3%. In test [2], this substance came in with a percent of MsFcγRIα-expressing HEK293 cells with MsIgM after 6 h incubation of 19.7%. For the same substance, in test [3], the percent of MsFcγRIα-expressing HEK293 cells with MsIgM after 12 h incubation stood at 26.3%.
